T1: S100A9(C3S) subunit of CP-Ser (human, UniProt P06702 1-114, C3S)
T1 construct: S100A9 (calgranulin B, MRP-14), human, 114 amino acids; also called β subunit
T1 sequence (looked up): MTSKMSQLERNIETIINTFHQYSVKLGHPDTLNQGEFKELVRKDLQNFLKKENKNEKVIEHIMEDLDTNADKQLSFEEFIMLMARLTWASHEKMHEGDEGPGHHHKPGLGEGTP

B1: S100A8(C42S)(I60E) subunit (natural protein, human, UniProt P05109 1-93, looked up)
chain: MLTELEKALNSIIDVYHKYSLIKGNFHAVYRDDLKKLLETESPQYIRKKGADVWFKELDENTDGAVNFQEFLILVIKMGVAAHKKSHEESHKE
notes: S100A8, human, 93 amino acids; also called S100A8 subunit of I60E
B2: S100A8(C42S)(I60K) subunit (natural protein, human, UniProt P05109 1-93, looked up)
chain: MLTELEKALNSIIDVYHKYSLIKGNFHAVYRDDLKKLLETESPQYIRKKGADVWFKELDKNTDGAVNFQEFLILVIKMGVAAHKKSHEESHKE
notes: S100A8, human, 93 amino acids; also called S100A8 subunit of I60K

Target: T1, S100A9(C3S) subunit of CP-Ser
Assay: co-purification; subunits overexpressed and purified as described previously (ref. 19); the protocol affords the S100A8/S100A9 heterodimer; subunits judged by gel electrophoresis and mass spectrometry

Binder | binding result
B1 | binds
B2 | binds

Reference: publication PMC4763987, “Calcium-induced tetramerization and zinc chelation shield human calprotectin from degradation by host and bacterial extracellular proteases† †Electronic supplementary information (ESI) available: Supplementary Tables S1–S6, supplementary Fig. S1–S22. Data for protease activity controls are included …” (Chemical Science, 2015)
